In US20210301025A1 (published 2021):
Positions count from the first letter of the chain named.

B1: ECB97 (designed binder, not shown: small tags and cut ends)
chain: MLPAPKNLVVSEVTEDSARLSWDDPWAFYESFLIQYQESEKVGEAIVLTVPGSERSYDLTGLKPGTEYTVSIYGVHNVYKDTNIRGLPLSAIFTTAPAPAPAPAPLPAPKNLVVSRVTEDSARLSWTAPDAAFDSFWIRYFEFLGSGEAIVLTVPGSERSYDLTGLKPGTEYVVNILSVKGGSISPPLSAIFTT
notes: Bispecific: P54AR4-83v22, (AP)5, P114AR7P95-C5v2
B2: ECB107 (designed binder, not shown: small tags and cut ends)
chain: B1 chain with W26H, L144V, S178G
notes: Bispecific: P54AR4-83v23, (AP)5, P114AR9P121-A6v2
B3: ECB109 (designed binder, not shown: small tags and cut ends)
chain: B1 chain with W26H
notes: Bispecific: P54AR4-83v23, (AP)5, P114AR7P95-C5v2
B4: ECB106 (designed binder, not shown: small tags and cut ends)
chain: B1 chain with W26H, S178G, S183K
notes: Bispecific: P54AR4-83v23, (AP)5, P114AR7P94-A3v22
B5: ECB108 (designed binder, not shown: small tags and cut ends)
chain: B1 chain with W26H, L144V, G145S, S146K, E148D, S178G
notes: Bispecific: P54AR4-83v23, (AP)5, P114AR9P122-A7v2
B6: P53A1R5-17 (designed binder, not shown: small tags and cut ends)
chain: LPAPKNLVVSEVTEDSLRLSWADPHGFYDSFLIQYQESEKVGEAINLTVPGSERSYDLTGLKPGTEYTVSIYGVHNVYKDTNMRGLPLSAEFTT
B7: P54AR4-48 (designed binder, not shown: small tags and cut ends)
chain: B6 chain with A22D, H25R, D29E
B8: P54AR4-17 (designed binder, not shown: small tags and cut ends)
chain: B6 chain with A22T, D23Y, P24D, H25R, G26D, F27G
B9: P54AR4-83 (designed binder, not shown: small tags and cut ends)
chain: B6 chain with A22D, H25W, G26A, D29E
B10: P54AR4-73 (designed binder, not shown: small tags and cut ends)
chain: B6 chain with A22T, D23W, H25Y, G26A, F27D, Y28L
notes: also called P54AR4-37
B11: P54CR4-31 (designed binder, not shown: small tags and cut ends)
chain: LPAPKNLVVSEVTEDSLRLSWTAPDAAFDSFLIQYQESEKVGEAINLTVPGSERSYDLTGLKPGTEYTVSIYGVLGSYVFEHDVMLPLSAEFTT
B12: ECB147v3-PEG24 (designed binder)
chain: MLPAPKNLVVSEVTEDSARLSWDDPWAFYESFLIQYQESEKVGEAIVLTVPGSERSYDLTGLCPGTEYTVSIYGVHNVYKDTNMRGLPLSAIFTTAPCPAPAPAPLPAPKNLVVSRVTEDSARLSWTAPDAAFDSFWIRYFEFLGSGEAIVLTVPGSERSYDLTGLCPGTEYVVNIMSVKGGSISPPLSAIFTTAPCPAPAPAPLAEAKVLANRELDKYGVSDYYKNLINNAKTVEGVKALLDEILAALP
modifications: PEG24-maleimide on the engineered cysteines
B13: ECB147v7-PEG24 (designed binder)
chain: B12 chain with C63K, C167K
modifications: PEG24-maleimide on the engineered cysteines
B14: ECB147v6-PEG24 (designed binder)
chain: B12 chain with C98A, C167K, C197A
modifications: PEG24-maleimide on the engineered cysteine
B15: ECB147v5-PEG24 (designed binder)
chain: B12 chain with C98A, C197A
modifications: PEG24-maleimide on the engineered cysteines
B16: P54AR4-81 (designed binder, not shown: small tags and cut ends)
chain: LPAPKNLVVSEVTEDSLRLSWDYDLGVYFDSFLIQYQESEKVGEAINLTVPGSERSYDLTGLKPGTEYTVSIYGVHNVYKDTNMRGLPLSAEFTT
B17: P54AR4-74 (designed binder, not shown: small tags and cut ends)
chain: B6 chain with A22G, D23Y, P24N, H25G, G26D, F27H, Y28F

Molecular target: T1, recombinant human extracellular domain of EGFR fused to an IgG1 Fc (human, UniProt P00533 25-645)
T1 construct: Bought (R&D Systems); captured on anti-human Fc IgG for SPR; also called EGFR-Fc
Experiment: SPR (ProteOn) per Example 3
Excerpt: (§1) Select EGFR/c-Met molecules were characterized for their affinity to both EGFR and c-Met, their ability to inhibit EGFR and c-Met autophosphorylation, and their effect on proliferation of HGF cells. Binding affinity of the bispecific EGFR/c-Met molecules to recombinant EGFR and/or c-Met extracellular domain was further by surface Plasmon resonance methods using a Proteon Instrument (BioRad) according to protocol described in Example 3.

| Kd | Binder |
| --- | --- |
| 1.3 nM | B1 |
| 16.9 nM | B2 |
| 17.3 nM | B3 |
| 16.7 nM | B4 |
| 15.3 nM | B5 |

Molecular target: T2, recombinant c-Met extracellular domain (human, UniProt P08581 16-932)
T2 construct: Construct used for SPR is not described further (may be the Fc chimera, as the protocol captures on anti-human Fc)
Experiment: SPR (ProteOn) per Example 3
Excerpt: as §1

| Kd | Binder |
| --- | --- |
| 1.7 nM | B1 |
| 9 nM | B2 |
| 2.1 nM | B3 |
| 5.1 nM | B4 |
| 25.5 nM | B5 |

Molecular target: T3, human EGFR on cells (A431, NCI-H292, NCI-H322, NCI-H441) (human, UniProt P00533 25-1210)
Experiment: cell-based or functional assay

| pEGFR inhibition in H292 cells IC50 | Binder |
| --- | --- |
| 16.6 nM | B1 |
| 812 nM | B2 |
| 432 nM | B3 |
| 367 nM | B4 |
| 814 nM | B5 |

Molecular target: T4, human c-Met on cells (NCI-H441, NCI-H292, U87-MG) (human, UniProt P08581 25-1390)
Experiment: cell-based or functional assay

| pMet inhibition in H441 cells IC50 | Binder |
| --- | --- |
| 24.2 nM | B1 |
| 29.9 nM | B2 |
| 26 nM | B3 |
| 53.3 nM | B4 |
| 126 nM | B5 |

Molecular target: T3, human EGFR on cells (A431, NCI-H292, …)
Experiment: cell-based or functional assay
Remark: another data set of the same source

| NCI-H292 Growth IC50 | NCI-H322 Growth IC50 | Phospho-EGFR IC50 (A431 cells) | Binder |
| --- | --- | --- | --- |
| 86 nM | 65 nM | > 2500 nM | B6 |
| – | – | 170 nM | B7 |
| – | – | 184 nM | B8 |
| 5.9 nM | 9.2 nM | 18 nM | B9 |
| 83 nM | 73 nM | 141 nM | B10 |
| 1150 nM | > 3070 nM | 179 nM | B11 |

Molecular target: T4, human c-Met on cells (NCI-H441, …)
Experiment: cell-based or functional assay
Remark: another data set of the same source

| IC50 of inhibition of HGF-stimulated c-Met phosphorylation, NCI-H292 cells | Binder |
| --- | --- |
| 0.5 nM | B12 |
| 0.5 nM | B13 |
| 0.4 nM | B14 |
| 0.4 nM | B15 |

Molecular target: T3, human EGFR on cells (A431, NCI-H292, …)
Experiment: A431 cell competition with biotinylated EGF
Experimental: A431 cells were plated at 5,000/well in opaque black 96-well plates and allowed to attach overnight at 37° C., in a humidified 5% CO₂ atmosphere. […] Cells were washed 3 times with 150 μL/well of FACS stain buffer. Cells were incubated with 50 μL/well of streptavidin-phycoerythrin conjugate (Invitrogen) diluted 1:100 in FACS stain buffer for 20 minutes at room temperature. Cells were washed 3 times with 150 μL/well of FACS stain buffer, after which wells were filled with 100 μL of FACS stain buffer and read for fluorescence at 600 nm using an Acumen eX3 reader. Data were plotted as the raw fluorescence signal against the logarithm of FN3 domain molar concentration and fitted to a sigmoidal dose-response curve with variable slope using GraphPad Prism 4 (GraphPad Software) to calculate IC₅₀ values.

| IC50 | Binder |
| --- | --- |
| 9.8 nM | B6 |
| 9.8 nM | B7 |
| 21 nM | B8 |
| 1.8 nM | B9 |
| 4.6 nM | B10 |
| 55 nM | B11 |
| 121 nM | B16 |

Molecular target: T3, human EGFR on cells (A431, NCI-H292, …)
Experiment: A431 cell binding, anti-His-Alexa488 fluorescence
Experimental: A431 cells were plated at 5,000/well in opaque black 96-well plates and allowed to attach overnight at 37° C., in a humidified 5% CO₂ atmosphere. […] Supernatant was removed and cells were washed 3 times with 150 μL/well of FACS stain buffer. Cells were incubated with 50 μL/well of anti-penta His-Alexa488 antibody conjugate (Qiagen) diluted 1:100 in FACS stain buffer for 20 minutes at room temperature. Cells were washed 3 times with 150 μL/well of FACS stain buffer, after which wells were filled with 100 μL of FACS stain buffer and read for fluorescence at 488 nm using an Acumen eX3 reader. Data were plotted as raw fluorescence signal against the logarithm of the FN3 domain molar concentration and fitted to a sigmoidal dose-response curve with variable slope using GraphPad Prism 4 (GraphPad Software) to calculate EC₅₀ values.

| EC50 | Binder |
| --- | --- |
| 4 nM | B6 |
| 12 nM | B7 |
| 16 nM | B8 |
| 77 nM | B17 |
| 2.2 nM | B9 |
| 9.4 nM | B10 |
| 84 nM | B16 |

Molecular target: T1, recombinant human extracellular domain …
Experiment: SPR (ProteOn), EGFR-Fc captured on anti-human Fc IgG
Experimental: Select EGFR-binding FN3 domains were screened to identify those with slow off-rates (koff) in binding to EGFR-Fc on a ProteOn XPR-36 instrument (Bio-Rad) to facilitate selection of high affinity binders. Goat anti-human Fc IgG (R&D systems), at a concentration of 5 μg/mL, was directly immobilized via amine coupling (at pH 5.0) on all 6 ligand channels in horizontal orientation on the chip with a flow rate of 30 μL/min in PBS containing 0.005% Tween-20. The immobilization densities averaged about 1500 Response Units (RU) with less than 5% variation among different channels. EGFR-Fc was captured on the anti-human Fc IgG surface to a density around 600 RU in vertical ligand orientation. All tested FN3 domains were normalized to a concentration of 1 μM and tested for their binding in horizontal orientation. All 6 analyte channels were used for the FN3 domains to maximize screening throughput. The dissociation phase was monitored for 10 minutes at a flow rate of 100 μL/min. The inter-spot binding signals were used as references to monitor non-specific binding between analytes and the immobilized IgG surface, and were subtracted from all binding responses. The processed binding data were locally fit to a 1:1 simple Langmuir binding model to extract the koff for each FN3 domain binding to captured EGFR-Fc.
Binding affinity of selected EGFR-binding FN3 domains to recombinant EGFR extracellular domain was further characterized by surface Plasmon resonance methods using a Proteon Instrument (BioRad). The assay set-up (chip preparation, EGFR-Fc capture) was similar to that described above for off-rate analysis. Selected EGFR binding FN3 domains were tested at 1 μM concentration in 3-fold dilution series in the horizontal orientation. A buffer sample was also injected to monitor the baseline stability.

| Kd | Binder |
| --- | --- |
| 1.89 nM | B6 |
| 7.78 nM | B7 |
| 9.62 nM | B8 |
| 0.255 nM | B9 |
| 0.197 nM | B10 |
| 0.383 nM | B11 |

Molecular target: T3, human EGFR on cells (A431, NCI-H292, …)
Experiment: cell-based or functional assay
Remark: another data set of the same source

| IC50 of inhibition of EGF-stimulated EGFR phosphorylation, NCI-H292 cells | Binder |
| --- | --- |
| 1.6 nM | B12 |
| 1.4 nM | B13 |
| 1.4 nM | B14 |
| 0.9 nM | B15 |
